The target of experiment [1] is T1, human FcγRIIa (131R), His- and GST-tagged (human, UniProt P12318 34-217).
T1 construct: Expressed in HEK293T cells, purified by nickel chromatography; also called R131 FcγRIIa; not shown: 6xHis and GST tags of the pTT5 vector
T1 sequence (looked up): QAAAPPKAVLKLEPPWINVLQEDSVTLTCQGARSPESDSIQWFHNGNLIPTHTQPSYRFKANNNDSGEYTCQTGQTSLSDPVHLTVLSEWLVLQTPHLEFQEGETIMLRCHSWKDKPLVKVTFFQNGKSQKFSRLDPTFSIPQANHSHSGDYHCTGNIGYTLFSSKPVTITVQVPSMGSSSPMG
Briefly: SPR. Here is the method: (§1) Variants were screened for receptor affinity using Biacore™ technology, also referred to as Biacore herein, a surface plasmon resonance (SPR) based technology for studying biomolecular interactions in real time. SPR measurements were performed using a Biacore 3000 instrument (Biacore, Piscataway, N.J.). A protein A/G (Pierce Biotechnology) CM5 biosensor chip (Biacore) was generated using a standard primary amine coupling protocol. All measurements were performed using HBS-EP buffer (10 mM HEPES pH 7.4, 0.15 M NaCl, 3 mM EDTA, 0.005% vol/vol surfactant P20, Biacore). Antibodies at 20 nM or 50 nM in HBS-EP buffer were immobilized on the protein A/G surface and FcγRs were injected. After each cycle, the surface was regenerated by injecting glycine buffer (10 mM, pH 1.5). Data were processed by zeroing time and response before the injection of FcγR and by subtracting appropriate nonspecific signals (response of reference channel and injection of running buffer). Kinetic analyses were performed by global fitting of binding data with a 1:1 Langmuir binding model using BIAevaluation software (Biacore).
In general terms: SPR reads the build-up and loss of mass on a sensor chip optically.

For experiment [2], the target named is T2, human FcγRIIb receptor protein (R&D Systems) (human, UniProt P31994 46-217).
T2 construct: Bought protein injected over captured antibody in Biacore; also called CD32b
T2 sequence (looked up): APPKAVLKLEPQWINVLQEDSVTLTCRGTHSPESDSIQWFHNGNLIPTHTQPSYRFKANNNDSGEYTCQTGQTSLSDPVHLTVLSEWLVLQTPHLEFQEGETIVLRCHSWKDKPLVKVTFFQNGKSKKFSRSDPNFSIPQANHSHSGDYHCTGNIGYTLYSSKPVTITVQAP
In words: SPR. Here is the method: as §1

B1: G237L (antibody, human IgG1, kappa)
heavy: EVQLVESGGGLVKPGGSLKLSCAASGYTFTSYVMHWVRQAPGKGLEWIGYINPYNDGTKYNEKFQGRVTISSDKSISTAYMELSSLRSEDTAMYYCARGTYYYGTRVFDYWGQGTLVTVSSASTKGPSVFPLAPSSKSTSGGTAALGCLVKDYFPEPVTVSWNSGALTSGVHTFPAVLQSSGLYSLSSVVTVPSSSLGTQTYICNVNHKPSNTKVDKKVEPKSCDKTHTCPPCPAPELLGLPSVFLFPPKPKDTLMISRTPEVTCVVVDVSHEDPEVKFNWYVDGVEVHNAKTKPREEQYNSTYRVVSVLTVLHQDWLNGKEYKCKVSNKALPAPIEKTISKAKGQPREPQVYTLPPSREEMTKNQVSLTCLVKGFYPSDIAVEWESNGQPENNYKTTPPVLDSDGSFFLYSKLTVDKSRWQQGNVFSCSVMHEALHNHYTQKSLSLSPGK
light: DIVMTQSPATLSLSPGERATLSCRSSKSLQNVNGNTYLYWFQQKPGQSPQLLIYRMSNLNSGVPDRFSGSGSGTEFTLTISSLEPEDFAVYYCMQHLEYPITFGAGTKLEIKRTVAAPSVFIFPPSDEQLKSGTASVVCLLNNFYPREAKVQWKVDNALQSGNSQESVTEQDSKDSTYSLSSTLTLSKADYEKHKVYACEVTHQGLSSPVTKSFNRGEC
notes: HuAM4G7 anti-CD19 IgG1 (m1) with this Fc substitution, EU index; copies: 2 + 2
Regarding B1, the binding result in experiment [1] and in experiment [2] was “no binding” each time.

B2: L234P (antibody, human IgG1, kappa)
heavy: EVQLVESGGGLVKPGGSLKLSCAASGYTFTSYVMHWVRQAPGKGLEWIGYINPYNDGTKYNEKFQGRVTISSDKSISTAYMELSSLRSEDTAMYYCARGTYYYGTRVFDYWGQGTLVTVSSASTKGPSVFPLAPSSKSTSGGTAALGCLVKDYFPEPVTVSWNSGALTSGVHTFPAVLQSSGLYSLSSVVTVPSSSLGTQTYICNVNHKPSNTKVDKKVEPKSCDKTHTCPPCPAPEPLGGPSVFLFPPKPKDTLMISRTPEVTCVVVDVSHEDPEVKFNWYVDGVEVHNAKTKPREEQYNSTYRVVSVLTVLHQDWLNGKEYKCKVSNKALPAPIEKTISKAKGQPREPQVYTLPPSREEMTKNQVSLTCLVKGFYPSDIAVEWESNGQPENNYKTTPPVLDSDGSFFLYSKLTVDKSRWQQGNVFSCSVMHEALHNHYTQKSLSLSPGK
light: DIVMTQSPATLSLSPGERATLSCRSSKSLQNVNGNTYLYWFQQKPGQSPQLLIYRMSNLNSGVPDRFSGSGSGTEFTLTISSLEPEDFAVYYCMQHLEYPITFGAGTKLEIKRTVAAPSVFIFPPSDEQLKSGTASVVCLLNNFYPREAKVQWKVDNALQSGNSQESVTEQDSKDSTYSLSSTLTLSKADYEKHKVYACEVTHQGLSSPVTKSFNRGEC
notes: as for B1
As usually defined, the Kd is the equilibrium constant for the complex coming apart. A high value points to weaker binding. As for B2, in experiment [1], the “Fold vs WT IgG1” value worked out at 0.0141 fold and the Kd turned out to be 60.7 µM. In experiment [2], the “Fold vs WT IgG1” value came to 0.0644 fold and binding was characterised by a dissociation constant (Kd) of 22.8 µM.

B3: G237Y (antibody, human IgG1, kappa)
heavy: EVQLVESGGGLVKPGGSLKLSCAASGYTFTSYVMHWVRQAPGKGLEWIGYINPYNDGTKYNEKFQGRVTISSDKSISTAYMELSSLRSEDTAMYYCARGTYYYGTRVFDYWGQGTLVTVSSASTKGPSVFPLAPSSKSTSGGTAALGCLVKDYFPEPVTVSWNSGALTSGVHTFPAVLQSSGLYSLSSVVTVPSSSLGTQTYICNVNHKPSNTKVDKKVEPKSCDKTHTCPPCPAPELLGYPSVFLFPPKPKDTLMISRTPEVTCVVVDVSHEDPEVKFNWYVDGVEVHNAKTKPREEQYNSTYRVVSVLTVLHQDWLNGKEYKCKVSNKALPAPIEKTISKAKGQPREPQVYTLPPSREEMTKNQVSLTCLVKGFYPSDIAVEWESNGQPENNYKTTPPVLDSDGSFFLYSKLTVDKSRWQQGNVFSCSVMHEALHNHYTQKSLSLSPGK
light: DIVMTQSPATLSLSPGERATLSCRSSKSLQNVNGNTYLYWFQQKPGQSPQLLIYRMSNLNSGVPDRFSGSGSGTEFTLTISSLEPEDFAVYYCMQHLEYPITFGAGTKLEIKRTVAAPSVFIFPPSDEQLKSGTASVVCLLNNFYPREAKVQWKVDNALQSGNSQESVTEQDSKDSTYSLSSTLTLSKADYEKHKVYACEVTHQGLSSPVTKSFNRGEC
notes: as for B1
Turning to B3, in experiment [1], the “Fold vs WT IgG1” value was 0.902 fold and the Kd worked out at 0.952 µM. Moreover, in experiment [2], the “Fold vs WT IgG1” value stood at 0.33 fold and binding was put at a Kd of 4.45 µM.

B4: L235S (antibody, human IgG1, kappa)
heavy: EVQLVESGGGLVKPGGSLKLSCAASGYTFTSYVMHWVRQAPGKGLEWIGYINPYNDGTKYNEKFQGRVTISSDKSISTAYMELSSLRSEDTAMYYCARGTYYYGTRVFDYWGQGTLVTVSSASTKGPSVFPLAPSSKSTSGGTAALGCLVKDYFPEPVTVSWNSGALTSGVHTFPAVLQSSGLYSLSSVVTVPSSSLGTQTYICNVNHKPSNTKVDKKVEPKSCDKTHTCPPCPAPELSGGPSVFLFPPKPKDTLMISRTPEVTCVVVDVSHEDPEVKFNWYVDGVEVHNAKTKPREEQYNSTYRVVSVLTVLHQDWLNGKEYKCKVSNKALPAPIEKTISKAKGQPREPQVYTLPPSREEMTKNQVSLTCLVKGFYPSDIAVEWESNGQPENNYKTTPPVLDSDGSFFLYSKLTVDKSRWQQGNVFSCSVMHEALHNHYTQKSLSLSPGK
light: DIVMTQSPATLSLSPGERATLSCRSSKSLQNVNGNTYLYWFQQKPGQSPQLLIYRMSNLNSGVPDRFSGSGSGTEFTLTISSLEPEDFAVYYCMQHLEYPITFGAGTKLEIKRTVAAPSVFIFPPSDEQLKSGTASVVCLLNNFYPREAKVQWKVDNALQSGNSQESVTEQDSKDSTYSLSSTLTLSKADYEKHKVYACEVTHQGLSSPVTKSFNRGEC
notes: as for B1
With B4, the entries for the “Fold vs WT IgG1” value in experiment [1] and in experiment [2] were 0.00859 fold and 0.0147 fold, respectively. Further, the Kd in experiment [1] and in experiment [2] was 100 µM throughout.

B5: G237P (antibody, human IgG1, kappa)
heavy: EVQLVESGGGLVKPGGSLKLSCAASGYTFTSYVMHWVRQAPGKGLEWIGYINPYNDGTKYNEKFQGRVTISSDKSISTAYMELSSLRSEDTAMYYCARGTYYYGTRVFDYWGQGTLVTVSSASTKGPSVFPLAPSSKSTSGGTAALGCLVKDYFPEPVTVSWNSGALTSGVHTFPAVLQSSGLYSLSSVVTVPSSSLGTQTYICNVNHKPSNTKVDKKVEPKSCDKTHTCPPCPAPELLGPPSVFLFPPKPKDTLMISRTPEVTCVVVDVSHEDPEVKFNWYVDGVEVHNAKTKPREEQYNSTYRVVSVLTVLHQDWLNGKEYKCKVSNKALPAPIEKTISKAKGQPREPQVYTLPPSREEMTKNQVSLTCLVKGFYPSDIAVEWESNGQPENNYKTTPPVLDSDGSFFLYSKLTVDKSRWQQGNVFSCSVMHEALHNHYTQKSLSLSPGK
light: DIVMTQSPATLSLSPGERATLSCRSSKSLQNVNGNTYLYWFQQKPGQSPQLLIYRMSNLNSGVPDRFSGSGSGTEFTLTISSLEPEDFAVYYCMQHLEYPITFGAGTKLEIKRTVAAPSVFIFPPSDEQLKSGTASVVCLLNNFYPREAKVQWKVDNALQSGNSQESVTEQDSKDSTYSLSSTLTLSKADYEKHKVYACEVTHQGLSSPVTKSFNRGEC
notes: as for B1
Consider B5, for which, in experiment [1], the “Fold vs WT IgG1” value was 0.00859 fold and the Kd came to 100 µM. In experiment [2], the “Fold vs WT IgG1” value amounted to 0.0147 fold and the Kd was 100 µM.

B6: L234V (antibody, human IgG1, kappa)
heavy: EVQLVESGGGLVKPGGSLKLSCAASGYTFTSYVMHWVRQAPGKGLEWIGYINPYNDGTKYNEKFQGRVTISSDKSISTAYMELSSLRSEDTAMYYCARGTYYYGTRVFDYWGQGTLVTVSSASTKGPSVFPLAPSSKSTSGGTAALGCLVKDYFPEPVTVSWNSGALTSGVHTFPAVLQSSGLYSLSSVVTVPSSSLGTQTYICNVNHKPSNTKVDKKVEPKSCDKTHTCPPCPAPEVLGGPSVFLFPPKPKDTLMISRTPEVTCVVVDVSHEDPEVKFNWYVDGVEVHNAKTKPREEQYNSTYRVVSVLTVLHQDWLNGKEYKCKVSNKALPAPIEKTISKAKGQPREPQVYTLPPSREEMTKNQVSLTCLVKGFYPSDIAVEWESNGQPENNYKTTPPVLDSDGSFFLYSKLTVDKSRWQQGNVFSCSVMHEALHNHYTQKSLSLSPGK
light: DIVMTQSPATLSLSPGERATLSCRSSKSLQNVNGNTYLYWFQQKPGQSPQLLIYRMSNLNSGVPDRFSGSGSGTEFTLTISSLEPEDFAVYYCMQHLEYPITFGAGTKLEIKRTVAAPSVFIFPPSDEQLKSGTASVVCLLNNFYPREAKVQWKVDNALQSGNSQESVTEQDSKDSTYSLSSTLTLSKADYEKHKVYACEVTHQGLSSPVTKSFNRGEC
notes: as for B1
As to B6, in experiment [1], the “Fold vs WT IgG1” value came out at 0.134 fold and binding was put at a Kd of 6.42 µM. For the same molecule, in experiment [2], the “Fold vs WT IgG1” value came to 0.456 fold and binding was put at a Kd of 3.22 µM.

B7: L235Q (antibody, human IgG1, kappa)
heavy: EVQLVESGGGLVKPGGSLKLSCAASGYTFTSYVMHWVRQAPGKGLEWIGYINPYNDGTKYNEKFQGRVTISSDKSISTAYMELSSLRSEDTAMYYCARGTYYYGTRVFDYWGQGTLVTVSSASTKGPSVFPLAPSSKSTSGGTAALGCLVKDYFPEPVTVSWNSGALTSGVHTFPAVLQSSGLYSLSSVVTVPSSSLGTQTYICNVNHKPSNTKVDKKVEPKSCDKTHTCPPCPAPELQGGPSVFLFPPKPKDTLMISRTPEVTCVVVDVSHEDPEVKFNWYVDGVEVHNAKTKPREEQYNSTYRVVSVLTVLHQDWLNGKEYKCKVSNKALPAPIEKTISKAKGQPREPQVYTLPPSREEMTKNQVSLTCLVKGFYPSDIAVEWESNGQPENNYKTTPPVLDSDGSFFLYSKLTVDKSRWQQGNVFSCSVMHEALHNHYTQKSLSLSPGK
light: DIVMTQSPATLSLSPGERATLSCRSSKSLQNVNGNTYLYWFQQKPGQSPQLLIYRMSNLNSGVPDRFSGSGSGTEFTLTISSLEPEDFAVYYCMQHLEYPITFGAGTKLEIKRTVAAPSVFIFPPSDEQLKSGTASVVCLLNNFYPREAKVQWKVDNALQSGNSQESVTEQDSKDSTYSLSSTLTLSKADYEKHKVYACEVTHQGLSSPVTKSFNRGEC
notes: as for B1
For B7, in experiment [1], the “Fold vs WT IgG1” value stood at 2.04 fold and the Kd stood at 0.42 µM. For the same molecule, the binding result in experiment [2] is “no binding”.

B8: G237Q (antibody, human IgG1, kappa)
heavy: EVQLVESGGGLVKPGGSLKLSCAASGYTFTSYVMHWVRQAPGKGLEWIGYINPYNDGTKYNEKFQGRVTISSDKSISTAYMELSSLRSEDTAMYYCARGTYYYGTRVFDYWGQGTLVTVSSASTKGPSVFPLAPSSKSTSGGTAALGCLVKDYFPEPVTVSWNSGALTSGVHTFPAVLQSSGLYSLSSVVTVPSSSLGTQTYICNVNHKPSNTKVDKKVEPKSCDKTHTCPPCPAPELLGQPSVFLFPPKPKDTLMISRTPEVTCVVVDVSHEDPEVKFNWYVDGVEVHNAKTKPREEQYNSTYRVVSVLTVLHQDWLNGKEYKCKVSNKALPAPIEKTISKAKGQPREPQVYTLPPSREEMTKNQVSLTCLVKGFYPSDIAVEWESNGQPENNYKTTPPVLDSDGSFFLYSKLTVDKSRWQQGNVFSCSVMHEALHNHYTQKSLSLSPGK
light: DIVMTQSPATLSLSPGERATLSCRSSKSLQNVNGNTYLYWFQQKPGQSPQLLIYRMSNLNSGVPDRFSGSGSGTEFTLTISSLEPEDFAVYYCMQHLEYPITFGAGTKLEIKRTVAAPSVFIFPPSDEQLKSGTASVVCLLNNFYPREAKVQWKVDNALQSGNSQESVTEQDSKDSTYSLSSTLTLSKADYEKHKVYACEVTHQGLSSPVTKSFNRGEC
notes: as for B1
As to B8, in experiment [1], the “Fold vs WT IgG1” value amounted to 0.0859 fold and the dissociation constant Kd stood at 10 µM. In addition, in experiment [2], the “Fold vs WT IgG1” value amounted to 0.147 fold and the Kd stood at 10 µM.

B9: L235P (antibody, human IgG1, kappa)
heavy: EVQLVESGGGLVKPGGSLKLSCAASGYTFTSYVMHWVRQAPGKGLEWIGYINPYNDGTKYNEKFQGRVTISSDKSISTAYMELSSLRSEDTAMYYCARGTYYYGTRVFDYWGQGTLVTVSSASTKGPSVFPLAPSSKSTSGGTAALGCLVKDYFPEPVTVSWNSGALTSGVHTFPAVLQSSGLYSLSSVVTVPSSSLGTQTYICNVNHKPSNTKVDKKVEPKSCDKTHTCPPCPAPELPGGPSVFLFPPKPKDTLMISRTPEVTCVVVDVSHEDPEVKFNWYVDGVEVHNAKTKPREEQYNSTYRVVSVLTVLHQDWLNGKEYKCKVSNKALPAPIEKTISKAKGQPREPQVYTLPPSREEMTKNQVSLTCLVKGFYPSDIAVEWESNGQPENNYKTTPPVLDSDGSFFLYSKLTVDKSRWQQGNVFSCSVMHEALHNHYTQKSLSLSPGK
light: DIVMTQSPATLSLSPGERATLSCRSSKSLQNVNGNTYLYWFQQKPGQSPQLLIYRMSNLNSGVPDRFSGSGSGTEFTLTISSLEPEDFAVYYCMQHLEYPITFGAGTKLEIKRTVAAPSVFIFPPSDEQLKSGTASVVCLLNNFYPREAKVQWKVDNALQSGNSQESVTEQDSKDSTYSLSSTLTLSKADYEKHKVYACEVTHQGLSSPVTKSFNRGEC
notes: as for B1
B9: the results for the “Fold vs WT IgG1” value in experiment [1] and in experiment [2] were 0.122 fold and 0.00585 fold, respectively. Besides, the Kd in experiment [1] is 7.01 µM; in experiment [2], 251 µM.

B10: L234I (antibody, human IgG1, kappa)
heavy: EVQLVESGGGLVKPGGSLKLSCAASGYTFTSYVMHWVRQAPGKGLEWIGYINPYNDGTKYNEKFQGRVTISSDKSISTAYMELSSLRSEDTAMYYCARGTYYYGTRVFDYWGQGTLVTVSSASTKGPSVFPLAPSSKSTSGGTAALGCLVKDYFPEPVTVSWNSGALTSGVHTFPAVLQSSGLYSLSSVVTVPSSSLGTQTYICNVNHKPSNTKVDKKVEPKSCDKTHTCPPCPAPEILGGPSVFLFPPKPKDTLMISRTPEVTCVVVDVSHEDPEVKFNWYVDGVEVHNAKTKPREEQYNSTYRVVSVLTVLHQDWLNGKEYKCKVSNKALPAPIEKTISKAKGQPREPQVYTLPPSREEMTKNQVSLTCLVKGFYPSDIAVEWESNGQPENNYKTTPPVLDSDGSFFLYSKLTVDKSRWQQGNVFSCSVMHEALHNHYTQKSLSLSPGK
light: DIVMTQSPATLSLSPGERATLSCRSSKSLQNVNGNTYLYWFQQKPGQSPQLLIYRMSNLNSGVPDRFSGSGSGTEFTLTISSLEPEDFAVYYCMQHLEYPITFGAGTKLEIKRTVAAPSVFIFPPSDEQLKSGTASVVCLLNNFYPREAKVQWKVDNALQSGNSQESVTEQDSKDSTYSLSSTLTLSKADYEKHKVYACEVTHQGLSSPVTKSFNRGEC
notes: as for B1
On to B10, for which, in experiment [1], the “Fold vs WT IgG1” value was found to be 0.0554 fold and the Kd was 15.5 µM. Moreover, in experiment [2], the “Fold vs WT IgG1” value was found to be 0.108 fold and the Kd worked out at 13.6 µM.

B11: G237V (antibody, human IgG1, kappa)
heavy: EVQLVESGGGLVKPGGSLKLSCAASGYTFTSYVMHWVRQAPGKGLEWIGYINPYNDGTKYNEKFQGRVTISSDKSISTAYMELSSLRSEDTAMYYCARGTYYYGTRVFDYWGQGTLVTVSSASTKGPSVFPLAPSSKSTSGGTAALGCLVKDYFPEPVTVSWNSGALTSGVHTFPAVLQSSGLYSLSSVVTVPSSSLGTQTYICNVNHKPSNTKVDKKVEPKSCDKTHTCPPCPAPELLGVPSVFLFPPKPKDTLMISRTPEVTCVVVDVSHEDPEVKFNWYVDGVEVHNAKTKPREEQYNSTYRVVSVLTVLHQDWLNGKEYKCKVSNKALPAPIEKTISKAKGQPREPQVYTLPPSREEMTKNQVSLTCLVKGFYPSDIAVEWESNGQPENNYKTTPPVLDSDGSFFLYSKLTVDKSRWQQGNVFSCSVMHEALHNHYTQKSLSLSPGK
light: DIVMTQSPATLSLSPGERATLSCRSSKSLQNVNGNTYLYWFQQKPGQSPQLLIYRMSNLNSGVPDRFSGSGSGTEFTLTISSLEPEDFAVYYCMQHLEYPITFGAGTKLEIKRTVAAPSVFIFPPSDEQLKSGTASVVCLLNNFYPREAKVQWKVDNALQSGNSQESVTEQDSKDSTYSLSSTLTLSKADYEKHKVYACEVTHQGLSSPVTKSFNRGEC
notes: as for B1
As to B11, the entries for the “Fold vs WT IgG1” value in experiment [1] and in experiment [2] were 0.0342 fold and 0.147 fold, respectively. Moreover, the Kd worked out at 25.1 µM in experiment [1] and 10 µM in experiment [2].

B12: L234F/G236N (antibody, human IgG1, kappa)
heavy: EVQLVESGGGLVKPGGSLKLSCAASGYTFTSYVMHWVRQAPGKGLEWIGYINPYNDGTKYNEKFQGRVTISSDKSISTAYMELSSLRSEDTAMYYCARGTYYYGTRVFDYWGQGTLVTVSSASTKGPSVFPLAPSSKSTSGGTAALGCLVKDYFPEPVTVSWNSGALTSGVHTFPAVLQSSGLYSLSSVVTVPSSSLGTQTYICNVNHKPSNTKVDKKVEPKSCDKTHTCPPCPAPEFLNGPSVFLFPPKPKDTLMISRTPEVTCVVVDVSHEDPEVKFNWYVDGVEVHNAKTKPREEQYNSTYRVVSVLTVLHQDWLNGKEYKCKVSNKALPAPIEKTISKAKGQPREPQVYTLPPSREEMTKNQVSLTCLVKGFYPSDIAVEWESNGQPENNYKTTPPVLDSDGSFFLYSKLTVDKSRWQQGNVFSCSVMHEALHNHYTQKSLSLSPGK
light: DIVMTQSPATLSLSPGERATLSCRSSKSLQNVNGNTYLYWFQQKPGQSPQLLIYRMSNLNSGVPDRFSGSGSGTEFTLTISSLEPEDFAVYYCMQHLEYPITFGAGTKLEIKRTVAAPSVFIFPPSDEQLKSGTASVVCLLNNFYPREAKVQWKVDNALQSGNSQESVTEQDSKDSTYSLSSTLTLSKADYEKHKVYACEVTHQGLSSPVTKSFNRGEC
notes: HuAM4G7 anti-CD19 IgG1 (m1) with these Fc substitutions, EU index; copies: 2 + 2
For B12, the binding result in experiment [1] and in experiment [2] was “no binding” each time.

B13: L234S (antibody, human IgG1, kappa)
heavy: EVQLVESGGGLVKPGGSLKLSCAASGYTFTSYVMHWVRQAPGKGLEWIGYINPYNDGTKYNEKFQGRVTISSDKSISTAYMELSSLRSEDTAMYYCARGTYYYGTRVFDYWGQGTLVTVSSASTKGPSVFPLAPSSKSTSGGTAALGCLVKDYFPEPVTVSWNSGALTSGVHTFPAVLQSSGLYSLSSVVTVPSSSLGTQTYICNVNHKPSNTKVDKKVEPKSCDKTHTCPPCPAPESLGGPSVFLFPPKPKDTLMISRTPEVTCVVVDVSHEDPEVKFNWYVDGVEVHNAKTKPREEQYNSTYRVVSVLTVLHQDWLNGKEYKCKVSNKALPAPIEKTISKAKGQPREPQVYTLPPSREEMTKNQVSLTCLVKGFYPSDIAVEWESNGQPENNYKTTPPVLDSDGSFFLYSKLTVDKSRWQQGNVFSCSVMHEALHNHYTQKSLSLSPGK
light: DIVMTQSPATLSLSPGERATLSCRSSKSLQNVNGNTYLYWFQQKPGQSPQLLIYRMSNLNSGVPDRFSGSGSGTEFTLTISSLEPEDFAVYYCMQHLEYPITFGAGTKLEIKRTVAAPSVFIFPPSDEQLKSGTASVVCLLNNFYPREAKVQWKVDNALQSGNSQESVTEQDSKDSTYSLSSTLTLSKADYEKHKVYACEVTHQGLSSPVTKSFNRGEC
notes: as for B1
In the case of B13, in experiment [1], the “Fold vs WT IgG1” value was determined as 0.693 fold and the Kd turned out to be 1.24 µM. In experiment [2], the “Fold vs WT IgG1” value is 0.192 fold and the Kd worked out at 7.64 µM.
